B1: AHP19484-VHH3 CAR (protein)
chain: QVQLVESGGGLVKPGGSLRLSCAASGSSFHFAFMGWYRQAPGKQRELVADISPGNSTNYADPVKGRFTISRDNAKNSLYLQMNSLRAEDTAVYFCRDLRSWGAWGQGTLVTVSSGGGSGGGSGGGSGGGSQVQLVESGGGLVKPGGSLRLSCAASGSSFHFAFMGWYRQAPGKQRELVADISPGNSTNYADPVKGRFTISRDNAKNSLYLQMNSLRAEDTAVYFCRDLRSWGAWGQGTLVTVSSAAADYKDDDDKIEVMYPPPYLDNEKSNGTIIHVKGKHLCPSPLFPGPSKPFWVLVVVGGVLACYSLLVTVAFIIFWVRSKRSRLLHSDYMNMTPRRPGPTRKHYQPYAPPRDFAAYRSRVKFSRSADAPAYQQGQNQLYNELNLGRREEYDVLDKRRGRDPEMGGKPRRKNPQEGLYNELQKDKMAEAYSEIGMKGERRRGKGHDGLYQGLSTATKDTYDALHMQALPPR
B2: AHP19509-VHH1 CAR (protein)
chain: EVQLVESGGGLVQPGGSLRLSCAASGGTFNRYTMGWFRQAPGKEREFVSAISWSGGSTDYADSVKGRFTISRDNSKNTLYLQMNSLRAEDTAVYYCDTDRMPYRPVAAGILSWEANWGQGTLVTVSSGGGSGGGSGGGSGGGSEVQLVESGGGLVQPGGSLRLSCAASGGTFNRYTMGWFRQAPGKEREFVSAISWSGGSTDYADSVKGRFTISRDNSKNTLYLQMNSLRAEDTAVYYCDTDRMPYRPVAAGILSWEANWGQGTLVTVSSAAADYKDDDDKIEVMYPPPYLDNEKSNGTIIHVKGKHLCPSPLFPGPSKPFWVLVVVGGVLACYSLLVTVAFIIFWVRSKRSRLLHSDYMNMTPRRPGPTRKHYQPYAPPRDFAAYRSRVKFSRSADAPAYQQGQNQLYNELNLGRREEYDVLDKRRGRDPEMGGKPRRKNPQEGLYNELQKDKMAEAYSEIGMKGERRRGKGHDGLYQGLSTATKDTYDALHMQALPPR
B3: AHP19485-VHH1 CAR (protein)
chain: EVQLVESGGGLVQPGGSLRLSCAASERIFSIHAMGWYRQAPGKQRELVSSITIGGSTHYADSVKGRFTISRDNSKNTLYLQMNSLRAEDTAVYYCNSMLLAGTVGGSWGQGTLVTVSSGGGSGGGSGGGSGGGSEVQLVESGGGLVQPGGSLRLSCAASERIFSIHAMGWYRQAPGKQRELVSSITIGGSTHYADSVKGRFTISRDNSKNTLYLQMNSLRAEDTAVYYCNSMLLAGTVGGSWGQGTLVTVSSAAADYKDDDDKIEVMYPPPYLDNEKSNGTIIHVKGKHLCPSPLFPGPSKPFWVLVVVGGVLACYSLLVTVAFIIFWVRSKRSRLLHSDYMNMTPRRPGPTRKHYQPYAPPRDFAAYRSRVKFSRSADAPAYQQGQNQLYNELNLGRREEYDVLDKRRGRDPEMGGKPRRKNPQEGLYNELQKDKMAEAYSEIGMKGERRRGKGHDGLYQGLSTATKDTYDALHMQALPPR
B4: VHH6 CAR (protein)
chain: DVQLQESGGGLVQAGGSLRLSCAVSGYPYSSYCMGWFRQAPGKEREGVAAIDSDGRTRYADSVKGRFTISQDNAKNTLYLQMNRMKPEDTAMYYCAARFGPMGCVDLSTLSFGHWGQGTQVTVSITGGGGSGGGGSGGGGSGGGGSDVQLQESGGGLVQAGGSLRLSCAVSGYPYSSYCMGWFRQAPGKEREGVAAIDSDGRTRYADSVKGRFTISQDNAKNTLYLQMNRMKPEDTAMYYCAARFGPMGCVDLSTLSFGHWGQGTQVTVSITAAADYKDDDDKIEVMYPPPYLDNEKSNGTIIHVKGKHLCPSPLFPGPSKPFWVLVVVGGVLACYSLLVTVAFIIFWVRSKRSRLLHSDYMNMTPRRPGPTRKHYQPYAPPRDFAAYRSRVKFSRSADAPAYQQGQNQLYNELNLGRREEYDVLDKRRGRDPEMGGKPRRKNPQEGLYNELQKDKMAEAYSEIGMKGERRRGKGHDGLYQGLSTATKDTYDALHMQALPPR

These binders were tested against PE-Labelled Human CD7 Protein, His Tag (ACROBiosystems, Cat# CD7-HP2E3) (human) (UniProt P09564) (assay: flow cytometry of CAR-T cells stained with PE-labelled human CD7 protein, His tag).
PE-Labelled Human CD7 Protein, His Tag (ACROBiosystems, Cat# CD7-HP2E3) (human), sequence (P09564 26-180 limits assumed): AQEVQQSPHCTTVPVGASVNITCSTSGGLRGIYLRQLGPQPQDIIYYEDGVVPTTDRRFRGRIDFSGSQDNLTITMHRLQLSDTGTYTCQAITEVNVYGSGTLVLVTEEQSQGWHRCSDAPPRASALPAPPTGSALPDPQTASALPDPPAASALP
B1 showed a CAR expression% (cells stained by PE-labelled human CD7 protein) of 92.8%. For B2, the CAR expression% (cells stained by PE-labelled human CD7 protein) was 97.3%. B3 gave a CAR expression% (cells stained by PE-labelled human CD7 protein) of 99.7%. B4 gave a CAR expression% (cells stained by PE-labelled human CD7 protein) of 99.1%.
